Laboratory results published in PMC12441119.

Target: T1, HOIP (residues 854–1072), Q96EP0
T1 chain: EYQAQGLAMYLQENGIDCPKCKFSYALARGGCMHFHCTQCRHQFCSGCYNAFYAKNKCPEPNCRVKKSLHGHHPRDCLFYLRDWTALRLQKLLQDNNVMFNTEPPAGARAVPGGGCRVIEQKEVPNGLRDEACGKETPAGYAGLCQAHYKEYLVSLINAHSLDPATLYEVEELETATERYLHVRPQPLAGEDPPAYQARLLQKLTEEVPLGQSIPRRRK
Experiment: ITC
Conditions: chain shown with the change

| Binder | Kd [µM] |
| --- | --- |
| STK4 (residues 11–326) wild type K59R (protein) RRQLKKLDEDSLTKQPEEVFDVLEKLGEGSYGSVYKAIHKETGQIVAIRQVPVESDLQEIIKEISIMQQCDSPHVVKYYGSYFKNTDLWIVMEYCGAGSVSDIIRLRNKTLTEDEIATILQSTLKGLEYLHFMRKIHRDIKAGNILLNTEGHAKLADFGVAGQLTDTMAKRNTVIGTPFWMAPEVIQEIGYNCVADIWSLGITAIEMAEGKPPYADIHPMRAIFMIPTNPPPTFRKPELWSDNFTDFVKQCLVKSPEQRATATQLLQHPFVRSAKGVSILRDLINEAMDVKLKRQESQQREVDQDDEENSEEDEMD | 20.9 |
| STK4 (residues 1–326) wild type K59R (protein) METVQLRNPPRRQLKKLDEDSLTKQPEEVFDVLEKLGEGSYGSVYKAIHKETGQIVAIRQVPVESDLQEIIKEISIMQQCDSPHVVKYYGSYFKNTDLWIVMEYCGAGSVSDIIRLRNKTLTEDEIATILQSTLKGLEYLHFMRKIHRDIKAGNILLNTEGHAKLADFGVAGQLTDTMAKRNTVIGTPFWMAPEVIQEIGYNCVADIWSLGITAIEMAEGKPPYADIHPMRAIFMIPTNPPPTFRKPELWSDNFTDFVKQCLVKSPEQRATATQLLQHPFVRSAKGVSILRDLINEAMDVKLKRQESQQREVDQDDEENSEEDEMD | 28.5 |
| STK4 (residues 1–487) wild type K59R (protein) METVQLRNPPRRQLKKLDEDSLTKQPEEVFDVLEKLGEGSYGSVYKAIHKETGQIVAIRQVPVESDLQEIIKEISIMQQCDSPHVVKYYGSYFKNTDLWIVMEYCGAGSVSDIIRLRNKTLTEDEIATILQSTLKGLEYLHFMRKIHRDIKAGNILLNTEGHAKLADFGVAGQLTDTMAKRNTVIGTPFWMAPEVIQEIGYNCVADIWSLGITAIEMAEGKPPYADIHPMRAIFMIPTNPPPTFRKPELWSDNFTDFVKQCLVKSPEQRATATQLLQHPFVRSAKGVSILRDLINEAMDVKLKRQESQQREVDQDDEENSEEDEMDSGTMVRAVGDEMGTVRVASTMTDGANTMIEHDDTLPSQLGTMVINAEDEEEEGTMKRRDETMQPAKPSFLEYFEQKEKENQINSFGKSVPGPLKNSSDWKIPQDGDYEFLKSWTVEDLQKRLLALDPMMEQEIEEIRQKYQSKRQPILDAIEAKKRRQQNF | 115 |
